Data published in patent publication US20120135923A1 (IPSEN PHARMA S A S, published 2012).
Bridge positions count the residues as written; N and C are the ends. Square brackets hold non-standard residues; d marks the D form. 2Nal = N[C@@H](Cc1ccc2ccccc2c1)C(=O)O; d2Nal = N[C@H](Cc1ccc2ccccc2c1)C(=O)O; Bta = N[C@@H](Cc1csc2ccccc12)C(=O)O; βAla = NCCC(=O)O

B1: Ac-c(Cys-Glu-His-D-2-Nal-Arg-2-Nal-Ala-Cys)-Pro-Pro-Lys-Asp-β-[…]NH2 (peptide)
peptide: Ac-CEH[d2Nal]R[2Nal]ACPPKD[βAla]YGRKRRRQRRR-NH2
modifications: disulfide 1-8
SMILES: CC(=O)N[C@H]1CSSC[C@@H](C(=O)N2CCC[C@H]2C(=O)N2CCC[C@H]2C(=O)N[C@@H](CCCCN)C(=O)N[C@@H](CC(=O)O)C(=O)NCCC(=O)N[C@@H](Cc2ccc(O)cc2)C(=O)NCC(=O)N[C@@H](CCCNC(=N)N)C(=O)N[C@@H](CCCCN)C(=O)N[C@@H](CCCNC(=N)N)C(=O)N[C@@H](CCCNC(=N)N)C(=O)N[C@@H](CCCNC(=N)N)C(=O)N[C@@H](CCC(N)=O)C(=O)N[C@@H](CCCNC(=N)N)C(=O)N[C@@H](CCCNC(=N)N)C(=O)N[C@@H](CCCNC(=N)N)C(N)=O)NC(=O)[C@H](C)NC(=O)[C@H](Cc2ccc3ccccc3c2)NC(=O)[C@H](CCCNC(=N)N)NC(=O)[C@@H](Cc2ccc3ccccc3c2)NC(=O)[C@H](Cc2c[nH]cn2)NC(=O)[C@H](CCC(=O)O)NC1=O
B2: Ac-c(Cys-Glu-His-D-2-Nal-Arg-Bal-Ala-Cys)-Pro-Pro-Lys-Asp-β-[…]NH2 (peptide)
peptide: Ac-CEH[d2Nal]R[Bta]ACPPKD[βAla]YGRRRRRQRRR-NH2
modifications: disulfide 1-8
SMILES: CC(=O)N[C@H]1CSSC[C@@H](C(=O)N2CCC[C@H]2C(=O)N2CCC[C@H]2C(=O)N[C@@H](CCCCN)C(=O)N[C@@H](CC(=O)O)C(=O)NCCC(=O)N[C@@H](Cc2ccc(O)cc2)C(=O)NCC(=O)N[C@@H](CCCNC(=N)N)C(=O)N[C@@H](CCCNC(=N)N)C(=O)N[C@@H](CCCNC(=N)N)C(=O)N[C@@H](CCCNC(=N)N)C(=O)N[C@@H](CCCNC(=N)N)C(=O)N[C@@H](CCC(N)=O)C(=O)N[C@@H](CCCNC(=N)N)C(=O)N[C@@H](CCCNC(=N)N)C(=O)N[C@@H](CCCNC(=N)N)C(N)=O)NC(=O)[C@H](C)NC(=O)[C@H](Cc2csc3ccccc23)NC(=O)[C@H](CCCNC(=N)N)NC(=O)[C@@H](Cc2ccc3ccccc3c2)NC(=O)[C@H](Cc2c[nH]cn2)NC(=O)[C@H](CCC(=O)O)NC1=O
B3: Ac-c(Cys-Glu-His-D-2-Nal-Arg-Bal-Ala-Cys)-Pro-Pro-Lys-Asp-β-[…]NH2 (peptide)
peptide: Ac-CEH[d2Nal]R[Bta]ACPPKD[βAla]YGRRKRRQRRR-NH2
modifications: disulfide 1-8
SMILES: CC(=O)N[C@H]1CSSC[C@@H](C(=O)N2CCC[C@H]2C(=O)N2CCC[C@H]2C(=O)N[C@@H](CCCCN)C(=O)N[C@@H](CC(=O)O)C(=O)NCCC(=O)N[C@@H](Cc2ccc(O)cc2)C(=O)NCC(=O)N[C@@H](CCCNC(=N)N)C(=O)N[C@@H](CCCNC(=N)N)C(=O)N[C@@H](CCCCN)C(=O)N[C@@H](CCCNC(=N)N)C(=O)N[C@@H](CCCNC(=N)N)C(=O)N[C@@H](CCC(N)=O)C(=O)N[C@@H](CCCNC(=N)N)C(=O)N[C@@H](CCCNC(=N)N)C(=O)N[C@@H](CCCNC(=N)N)C(N)=O)NC(=O)[C@H](C)NC(=O)[C@H](Cc2csc3ccccc23)NC(=O)[C@H](CCCNC(=N)N)NC(=O)[C@@H](Cc2ccc3ccccc3c2)NC(=O)[C@H](Cc2c[nH]cn2)NC(=O)[C@H](CCC(=O)O)NC1=O

Target: T1, human melanocortin receptor subtype 5 (hMC5-R) (human, UniProt P33032 1-325)
T1 construct: whole, on cells; membranes of CHO-K1 cells
Test: [125I]-NDP-α-MSH competition, membranes
Experimental: (§1) Cellular membranes used for the in vitro receptor binding assays were obtained from transgenic CHO-K1 cells stably expressing hMC-R receptor subtypes 1, 3, 4 or 5. […] The pellets were resuspended in the same buffer and centrifuged at 50,000 g for 10 minutes at approximately 4° C. The washed pellets containing the cellular membranes were stored at approximately −80° C.
(§2) Competitive inhibition of [¹²⁵I](Tyr²)-(Nle⁴-D-Phe⁷)α-MSH ([¹²⁵I]-NDP-α-MSH, Amersham Biosciences®) binding was carried out in polypropylene 96 well plates. Cell membranes (1-10 μg protein/well) prepared as described above were incubated in 50 mM Tris-HCl at pH 7.4 containing 0.2% bovine serum albumin (BSA), 5 mM MgCl₂, 1 mM CaCl₂ and 0.1 mg/mL bacitracin, with increasing concentrations of the test compound and 0.1-0.3 nM […] for approximately 90-120 minutes at approximately 37° C. Bound [¹²⁵I]-NDP-α-MSH ligand was separated from free [¹²⁵I]-NDP-α-MSH by filtration through GF/C glass fiber filter plates (Unifilter®; Packard) presoaked with 0.1% (w/v) polyethylenimine (PEI), using a Packard Filtermate® harvester. Filters were washed three times with 50 mM Tris-HCl at pH 7.4 at a temperature of approximately 0-4° C. and then assayed for radioactivity using a Packard Topcount® scintillation counter. Binding data were analyzed by computer-assisted non-linear regression analysis (XL fit; IDBS).

T1 sequence (P33032 whole entry): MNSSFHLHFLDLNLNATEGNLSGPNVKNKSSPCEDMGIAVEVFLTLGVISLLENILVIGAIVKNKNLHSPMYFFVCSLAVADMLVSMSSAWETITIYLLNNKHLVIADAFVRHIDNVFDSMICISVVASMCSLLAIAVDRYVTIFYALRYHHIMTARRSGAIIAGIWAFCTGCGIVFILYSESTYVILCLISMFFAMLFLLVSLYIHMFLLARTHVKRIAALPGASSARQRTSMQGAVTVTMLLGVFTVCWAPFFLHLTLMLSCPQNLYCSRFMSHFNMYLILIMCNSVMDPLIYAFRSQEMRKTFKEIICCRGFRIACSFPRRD

Binder | Ki
B1 | 3.13 nM
B2 | 31.1 nM
B3 | 16.4 nM
Ac-CEH[d2Nal]R[Bta]ACPPKD[βAla]RRRRRQRRR-NH2 (disulfide 1-8) | 38.3 nM

Target: T2, human melanocortin receptor subtype 3 (hMC3-R) (human, UniProt P41968 1-323)
T2 construct: whole, on cells; membranes of CHO-K1 cells
Test: [125I]-NDP-α-MSH competition, membranes
Experimental: as §1, §2

T2 sequence (P41968 whole entry): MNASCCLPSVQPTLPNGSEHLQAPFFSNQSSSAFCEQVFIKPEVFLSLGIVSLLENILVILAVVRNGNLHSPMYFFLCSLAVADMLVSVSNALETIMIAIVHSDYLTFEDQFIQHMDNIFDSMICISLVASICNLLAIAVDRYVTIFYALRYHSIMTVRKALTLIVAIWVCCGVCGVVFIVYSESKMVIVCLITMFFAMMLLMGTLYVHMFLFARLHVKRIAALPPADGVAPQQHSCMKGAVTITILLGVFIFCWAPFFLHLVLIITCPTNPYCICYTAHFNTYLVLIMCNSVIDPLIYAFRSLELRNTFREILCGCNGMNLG

Binder | Ki
B1 | 0.604 nM
B2 | 4.05 nM
B3 | 1.57 nM
Ac-CEH[d2Nal]R[Bta]ACPPKD[βAla]RRRRRQRRR-NH2 (disulfide 1-8) | 4.97 nM

Target: T3, human melanocortin receptor subtype 1 (hMC1-R) (human, UniProt Q01726 1-317)
T3 construct: whole, on cells; membranes of CHO-K1 cells
Test: [125I]-NDP-α-MSH competition, membranes
Experimental: as §1, §2

T3 sequence (Q01726 whole entry): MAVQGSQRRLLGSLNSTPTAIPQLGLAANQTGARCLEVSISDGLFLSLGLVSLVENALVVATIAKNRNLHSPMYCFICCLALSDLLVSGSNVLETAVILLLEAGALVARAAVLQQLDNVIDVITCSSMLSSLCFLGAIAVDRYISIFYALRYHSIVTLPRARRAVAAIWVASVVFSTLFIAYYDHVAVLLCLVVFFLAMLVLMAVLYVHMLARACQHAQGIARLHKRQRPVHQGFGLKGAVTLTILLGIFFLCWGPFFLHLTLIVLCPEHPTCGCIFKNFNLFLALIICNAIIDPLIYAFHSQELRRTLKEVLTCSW

Binder | Ki
B1 | 1.49 nM
B2 | 3.07 nM
B3 | 2.24 nM
Ac-CEH[d2Nal]R[Bta]ACPPKD[βAla]RRRRRQRRR-NH2 (disulfide 1-8) | 3.86 nM

Target: T4, human melanocortin receptor subtype 4 (hMC4-R) (human, UniProt P32245 1-332)
T4 construct: whole, on cells; membranes of CHO-K1 cells
Test: [125I]-NDP-α-MSH competition, membranes
Experimental: as §1, §2

T4 sequence (P32245 whole entry): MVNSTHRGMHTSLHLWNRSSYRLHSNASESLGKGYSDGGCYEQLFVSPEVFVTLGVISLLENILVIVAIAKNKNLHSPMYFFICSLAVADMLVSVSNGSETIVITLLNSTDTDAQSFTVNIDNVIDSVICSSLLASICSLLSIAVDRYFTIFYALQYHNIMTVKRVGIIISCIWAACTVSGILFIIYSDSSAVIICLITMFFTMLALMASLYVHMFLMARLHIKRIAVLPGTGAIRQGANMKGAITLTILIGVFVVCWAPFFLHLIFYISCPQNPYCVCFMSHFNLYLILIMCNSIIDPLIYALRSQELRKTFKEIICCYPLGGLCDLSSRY

Binder | Ki
B1 | 0.865 nM
B2 | 0.498 nM
B3 | 0.437 nM
Ac-CEH[d2Nal]R[Bta]ACPPKD[βAla]RRRRRQRRR-NH2 (disulfide 1-8) | 0.192 nM
